Reference: patent publication EP0946727B1 (GENENTECH, INC., dated 2007)

Legend:
rhesus CD11a [1] = target: T1, rhesus CD11a (rhesus, UniProt H9Z8N3 26-1169); test: blocking of rhesus lymphocyte adhesion to recombinant human ICAM-1 on plates
T1 construct: whole, on cells; also called rhCD11a
T1 sequence: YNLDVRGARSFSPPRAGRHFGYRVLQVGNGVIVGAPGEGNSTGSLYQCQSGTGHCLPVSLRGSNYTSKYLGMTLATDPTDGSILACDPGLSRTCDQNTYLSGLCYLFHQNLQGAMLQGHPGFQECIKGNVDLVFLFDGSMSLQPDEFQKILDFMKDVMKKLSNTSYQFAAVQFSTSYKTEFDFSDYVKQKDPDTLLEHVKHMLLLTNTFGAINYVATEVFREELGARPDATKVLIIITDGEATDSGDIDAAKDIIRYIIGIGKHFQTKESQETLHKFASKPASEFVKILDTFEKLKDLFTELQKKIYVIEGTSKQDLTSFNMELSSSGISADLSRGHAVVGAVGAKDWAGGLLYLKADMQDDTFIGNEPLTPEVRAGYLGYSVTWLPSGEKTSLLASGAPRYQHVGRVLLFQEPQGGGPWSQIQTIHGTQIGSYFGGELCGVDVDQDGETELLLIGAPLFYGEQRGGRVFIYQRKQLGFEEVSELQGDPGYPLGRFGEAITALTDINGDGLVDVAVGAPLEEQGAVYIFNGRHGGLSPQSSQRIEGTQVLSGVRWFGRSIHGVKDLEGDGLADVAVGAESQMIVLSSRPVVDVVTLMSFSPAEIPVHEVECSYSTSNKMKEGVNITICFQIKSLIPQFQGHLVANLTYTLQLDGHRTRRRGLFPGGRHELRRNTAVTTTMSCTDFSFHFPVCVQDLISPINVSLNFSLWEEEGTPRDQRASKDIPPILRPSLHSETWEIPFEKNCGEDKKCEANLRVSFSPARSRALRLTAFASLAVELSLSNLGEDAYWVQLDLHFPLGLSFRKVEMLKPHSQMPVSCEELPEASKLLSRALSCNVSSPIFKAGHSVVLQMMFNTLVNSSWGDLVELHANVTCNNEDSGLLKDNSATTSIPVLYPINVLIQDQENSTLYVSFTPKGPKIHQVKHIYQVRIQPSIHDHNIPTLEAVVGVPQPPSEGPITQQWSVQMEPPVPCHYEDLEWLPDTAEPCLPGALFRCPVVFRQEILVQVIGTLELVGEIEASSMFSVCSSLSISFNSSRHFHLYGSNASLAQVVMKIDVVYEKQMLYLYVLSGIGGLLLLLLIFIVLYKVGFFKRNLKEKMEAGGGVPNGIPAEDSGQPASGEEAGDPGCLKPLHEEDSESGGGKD

[2] = target: T2, rhesus-human chimeric CD11a (human CD11a with a rhesus I-domain) (human, UniProt P20701 26-1170); test: blocking of adhesion of Rh/HuCD11a-293 cells to human keratinocytes
T2 construct: whole, on cells; also called Rh/HuCD11a
T2 sequence (looked up): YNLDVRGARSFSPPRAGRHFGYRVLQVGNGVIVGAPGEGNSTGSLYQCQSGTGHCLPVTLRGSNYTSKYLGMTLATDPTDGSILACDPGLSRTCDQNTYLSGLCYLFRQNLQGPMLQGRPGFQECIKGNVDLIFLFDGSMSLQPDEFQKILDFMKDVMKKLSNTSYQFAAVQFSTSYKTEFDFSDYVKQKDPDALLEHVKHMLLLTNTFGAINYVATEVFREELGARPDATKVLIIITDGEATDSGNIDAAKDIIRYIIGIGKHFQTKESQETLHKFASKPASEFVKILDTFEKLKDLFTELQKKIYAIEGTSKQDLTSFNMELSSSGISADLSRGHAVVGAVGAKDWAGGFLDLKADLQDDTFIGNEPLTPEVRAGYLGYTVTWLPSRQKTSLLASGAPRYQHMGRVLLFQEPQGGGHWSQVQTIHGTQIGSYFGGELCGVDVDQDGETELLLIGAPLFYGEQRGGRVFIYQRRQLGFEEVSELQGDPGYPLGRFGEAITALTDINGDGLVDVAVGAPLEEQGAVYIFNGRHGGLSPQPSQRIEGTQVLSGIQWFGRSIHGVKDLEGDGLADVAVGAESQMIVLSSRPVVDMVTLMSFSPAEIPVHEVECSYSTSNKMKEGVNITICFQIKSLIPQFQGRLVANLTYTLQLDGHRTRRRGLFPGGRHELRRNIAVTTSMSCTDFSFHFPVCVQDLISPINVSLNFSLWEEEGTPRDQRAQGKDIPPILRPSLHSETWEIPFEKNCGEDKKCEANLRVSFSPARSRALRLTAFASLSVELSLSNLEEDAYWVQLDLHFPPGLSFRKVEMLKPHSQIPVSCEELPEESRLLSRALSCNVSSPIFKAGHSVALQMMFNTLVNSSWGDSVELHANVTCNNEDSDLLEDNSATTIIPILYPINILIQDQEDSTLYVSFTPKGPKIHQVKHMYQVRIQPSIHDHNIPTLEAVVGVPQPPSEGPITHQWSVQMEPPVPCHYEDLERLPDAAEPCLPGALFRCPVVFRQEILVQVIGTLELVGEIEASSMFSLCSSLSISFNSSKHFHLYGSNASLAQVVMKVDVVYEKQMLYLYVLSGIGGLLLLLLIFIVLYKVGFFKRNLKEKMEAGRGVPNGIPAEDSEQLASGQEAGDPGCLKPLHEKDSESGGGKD

rhesus CD11a [3] = target: T1, rhesus CD11a; test: blocking of rhesus lymphocyte adhesion to human keratinocytes
rhesus CD11a [4] = target: T1, rhesus CD11a; test: saturation binding, Kd(app)
rhesus CD11a [5] = target: T1, rhesus CD11a; test: cell binding, rhesus CD11a
rhesus CD11a [6] = target: T1, rhesus CD11a; test: blocking of rhesus lymphocyte adhesion to recombinant human ICAM-1 on plates; remark: listed apart in the source
rhesus CD11a [7] = target: T1, rhesus CD11a; test: cell-based or functional assay
rhesus CD11a [8] = target: T1, rhesus CD11a; test: blocking of rhesus lymphocyte adhesion to human keratinocytes; remark: listed apart in the source
[9] = target: T2, rhesus-human chimeric CD11a (human …); test: blocking of adhesion of Rh/HuCD11a-transfected 293 cells to human keratinocytes

IC50 (rhesus CD11a [1]): 5.3 nM
fold down from MHM23 [2]: 4 fold
fold less efficacious than MHM23 (rhesus CD11a [3]): 74 fold
fold down of Kd from the Kd of HuIgG1 for human CD11a (rhesus CD11a [4]): ~26 fold
fold improvement over the EC50 of HuIgG1 for rhesus CD11a (rhesus CD11a [5]): 240 to 415 fold
fold weaker than the EC50 of HuIgG1 for human CD11a (rhesus CD11a [5]): 3 to 5 fold
fold less efficacious than MHM23 (rhesus CD11a [6]): 4 fold
IC50, rhesus mixed lymphocyte response (MLR) (rhesus CD11a [7]): 23.4 nM
IC50 (rhesus CD11a [8]): 119 nM
IC50 [9]: 4.9 nM
B1: rhesus-binding MHM24 IgG1 (rhesusized antibody mutant) (antibody, V domains shown)
VH: EVQLVESGGGLVQPGGSLRLSCAASGYSFTGHWMNWVRQAPGKGLEWVGMIAPASSSTRYNQKFKDRFTISVDKSKNTLYLQMNSLRAEDTAVYYCARGIYFYGTTYFDYWGQGTLVTVSS
VL: DIQMTQSPSSLSASVGDRVTITCRASKTISKYLAWYQQKPGKAPKLLIYSGSTLQSGVPSRFSGSGSGTDFTLTISSLQPEDFATYYCQQHNEYPLTFGQGTKVEIKR
